From paper PMC6328864, “Regulation of Myosin-5b by Rab11a and the Rab11 family interacting protein 2” (Bioscience Reports, 2018)

T1: Flag-Myo5b-GTD (Rattus norvegicus (Rat), UniProt P70569)
T1 chain: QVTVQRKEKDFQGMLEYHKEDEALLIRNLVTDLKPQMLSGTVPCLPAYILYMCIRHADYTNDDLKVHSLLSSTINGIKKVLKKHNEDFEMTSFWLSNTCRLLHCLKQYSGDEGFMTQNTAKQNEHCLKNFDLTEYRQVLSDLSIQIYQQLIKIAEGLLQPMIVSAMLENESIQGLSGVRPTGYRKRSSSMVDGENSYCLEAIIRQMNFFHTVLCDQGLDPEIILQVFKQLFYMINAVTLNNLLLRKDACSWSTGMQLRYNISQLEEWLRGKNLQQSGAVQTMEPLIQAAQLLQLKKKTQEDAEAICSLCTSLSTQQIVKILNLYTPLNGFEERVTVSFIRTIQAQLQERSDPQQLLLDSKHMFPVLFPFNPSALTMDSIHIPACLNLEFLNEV

B1: GST–Rab11a (natural protein, human, UniProt P62491 1-216, looked up)
chain: MGTRDDEYDYLFKVVLIGDSGVGKSNLLSRFTRNEFNLESKSTIGVEFATRSIQVDGKTIKAQIWDTAGQERYRAITSAYYRGAVGALLVYDIAKHLTYENVERWLKELRDHADSNIVIMLVGNKSDLRHLRAVPTDEARAFAEKNGLSFIETSALDSTNVEAAFQTILTEIYRIVSQKQMSDRRENDMSPSNNVVPIHVPPTTENKPKVQCCQNI
notes: Rab11a, human (cDNA by RT-PCR from human brain cDNA); GTPγS also in the pull-down buffers; source: E. coli, purified (GSH-Sepharose); not shown: GST, N-terminal, kept

Assays:
GST–Rab11a = target: B1; experiment: pull-down; GSH-Sepharose; 0.5 μM GST–Rab11a (bait), 0–1.0 μM Flag-Myo5b-GTD, 0–1.0 μM Flag-FIP2-RBD; Buffer-B with 100 mM NaCl and 3 μM GTPγS; 4°C, 1 h; eluted with 20 mM GSH; Western blot (anti-Flag, anti-GST); settings: both partners purified
[1] = target: T2, Flag-FIP2 (full-length Rab11 family interacting protein 2) (human, UniProt Q7L804 1-512); experiment: pull-down; GSH-Sepharose; 0.5 μM GST–Rab11a (bait), 0–0.5 μM Flag-Myo5b-Tail, 0–1.0 μM Flag-FIP2 or Flag-FIP2-RBD; Buffer-B with 100 mM NaCl and 3 μM GTPγS; 4°C, 1 h; eluted with 20 mM GSH; Coomassie staining; settings: both partners purified
T2 construct: not shown: Flag, N-terminal, kept

Flag-Myo5b-GTD = target: T1, Flag-Myo5b-GTD; experiment: GST pull-down / anti-Flag pull-down; Rab11a loaded with GTPγS/Mg2+; binding competed away by FIP2-RBD

| binding result (GST–Rab11a) | binding result [1] | binding result (Flag-Myo5b-GTD) | Binder |
| --- | --- | --- | --- |
| binds |  |  | Flag-FIP2-RBD (domain or fragment, human, UniProt Q7L804 452-512, looked up, not shown: Flag, N-terminal, kept) TYEEVLQELVKHKELLRRKDTHIRELEDYIDNLLVRVMEETPSILRVPYEPSRKAGKFSNS |
|  | binds | binds | B1 |
